In test [1] the target is T1, sIGF1R (Homo sapiens, UniProt P08069).
T1 construct: hexahistidine (C); purchased R&D Systems
The test is described as follows: ELISA relative binding affinity of PG-peptide fusions for sIGF1R. The conditions noted are these: for EC50: PG-peptide fusion, ELISA on 2 μg/ml coated sIGF1R, one site binding equation. The source says: The identified IFG1R binding peptides were cloned in-frame to the C-terminus of the protein G IgG domain (PG) in a modified pET17b vector (EMD Chemicals, Gibbstown, N.J.) having a ligation independent cloning site (LIC) to generate PG-peptide fusions. The IgG binding domain of protein G is stable and thus enabled easy purification of the fusion protein from bacterial lysates. The amino acid sequence of the protein G IgG domain used is shown in SEQ ID NO: 31. The PG-peptide fusions were expressed in bacteria upon 1 mM IPTG induction and purified using IgG Sepharose beads (GE Healthcare Life Sciences, Piscataway, N.J.) from the bacterial lysates cleared by centrifugation at 16,000 g, 4° C. for 20 min.
(§1) Relative binding affinities of the PG-peptide fusions for sIGF1R were measured using ELISA. The Kds were determined using GraphPad Prism 4 software with a one site binding equation. 100 μl of 2 μg/ml sIGF1R(R&D Systems, Minneapolis, Minn.) in Dulbecco's Phosphate Buffer Saline (DPBS (−/−)) was coated onto a 96 well Black Maxisorp plates (Nunc, Rochester, N.Y.) overnight at 4° C. The plates were washed with TBST and the wells blocked with 200 μl/well Starting Block T20 (TBS) (Pierce, Rockford, Ill.) for 1 hr, room temperature with 300 rpm shaking. 75 μl/well of purified, serially diluted PG-peptide fusions, starting concentration 40 μM, was added into the wells and incubated for 1 h, room temperature with 300 rpm mixing; the volume was brought up to 100 μl with Starting Block T20. The plates were washed 3× with TBST and then probed with 100 μl/well Peroxidase labeled-Rabbit antibody (1:5000) (Rockland, Gilbertsville, Pa.), washed, and the signal was detected using 100 μl/well POD substrate (Roche, Indianapolis, Ind.). Chemiluminescence was detected using a Molecular Devices M5 plate reader.

Test [2] addresses T1, sIGF1R. The test is described as follows: competition ELISA of PG-peptide fusions with IGF-1 on sIGF1R. Type of test: binding. The conditions noted are these: PG-peptide fusion, IGF-1 400 nM final. How it is done:
as §1
For competition assays, insulin-like growth factor 1 (IGF-1) (R&D Systems, Minneapolis, Minn.) was added to the Starting Block T20 used to bring the volume up to 100 μl at a concentration of 400 nM final.

Test [3] relates to rat brain microvascular endothelial cell model. Kind of test: in vitro BBB model, transcytosis of peptide-AP fusions. In kind it is cell-based. The conditions noted are these: 25 μg peptide-AP fusion in top chamber, detected in bottom chamber at 15 and 30 minute by ELISA. How it is done: Select sIGF1R binding peptides were further characterized in the in vitro blood-brain barrier model, rat brain microvascular endothelial cell model.
Rat Brain capillary endothelial cells were prepared as described (Perriere et al., J. Neurochem. 93:279-289, 2005). Briefly, brains from 6-8 week old male Sprague Dawley rats were rolled on 3 MM chromatography paper to remove the meniges, cut sagitally, and the white matter dissected leaving the cortices, which were then minced thoroughly. The minced cortices were transferred to a 50 ml polypropylene conical tube with 20 ml DMEM supplemented with 39 units/ml DNase I (Worthington, Lakewood, N.J.) and 0.7 mg/ml Collagenase type 2 (Worthington, Lakewood, N.J.) at final concentration and incubated at 37° C. with gentle mixing for 1.25 hrs. After a brief centrifugation the resultant pellet was resuspended in 20 ml 20% BSA (Sigma, St. Louis, Mo.) in DMEM, centrifuged and the microvessel enriched pellet was isolated a digested a second time with 20 ml DMEM supplemented with 39 units/ml DNase 1 and 1 mg/ml Collagenase/Dispase (Roche, Indianapolis, Ind.) at 37° C. for 1 hr. The digestion was briefly centrifuged and the resulting cell pellet was resuspended in 2 ml DMEM and subsequently layered onto the top of a 33% continuous Percoll gradient, centrifuged, and the enriched microvessel fraction was removed and briefly centrifuged a second time. The cell pellet was resuspended in 10 ml complete rat brain microvascular endothelial cell growth media (DMEM, 20% Plasma Derived Serum (PDS), 100 μg/ml Heparin, 2 mM L-Glutamine, 100 U/ml penicillin, 100 μg/ml streptomycin, 0.25 μg/ml amphotericin) and plated onto a 10 cm tissue culture dish for 4 hrs at 37° C., 5% CO2. After 4 hrs cells that remained unattached were pipetted off and counted in a hemacytometer using Trypan Blue. The cells were plated into the top chamber of the Transwells (0.4 μm pore size, diameter 1.12 cm, Corning, Acton, Mass.) treated with 400 μg/ml collagen type IV (Sigma, St. Louis, Mo.) and 100 μg/ml fibronectin (Sigma, St. Louis, Mo.) at a density of 6×10^5 cells/ml, 500 μl per well. 1 ml of growth media was placed into the bottom chamber. Both chambers were supplemented with 4 μg/ml puromycin (Clontech, Mountain View, Calif.) and the plates were incubated at 37° C., 5% CO2 overnight. The next day the media was changed with fresh complete culture media with 4 μg/ml puromycin and the cells were placed back into the incubator overnight. The next day the media was changed with complete culture media and again two days after. Cultures were monitored by eye till they reached 100% confluence, ˜6-7 days after seeding. The developed in vitro BBB model had high transendothelial electrical resistance (>100 ohms-cm^2), measured using Millicell-ERS (Millipore, Billercia, Mass.) and very low Na-Fluorescein permeability (about 1-5×10^−6 cm/s).
25 μg of purified peptide-AP fusions were added to the top chamber of the in vitro BBB model and transcytosed peptide-AP fusions were detected at 15 and 30 minute timepoints in the bottom chamber using ELISA. Briefly, 75 μl of each sample was transferred to plates coated with 5 μg/ml mouse monoclonal anti-bacterial AP antibody (Sigma, St. Louis, Mo.). The plate was incubated for 1 hr, washed, the signal was developed with Attophos Substrate (Roche, Indianapolis, Ind.) according to manufacturer's recommendation, and read using a Molecular Devices M5 plate reader with 440 nm excitation and 550 nm emission.

The target of a further test is insulin receptor (Homo sapiens, UniProt P06213). The test is described as follows: phage lysate binding to insulin receptor (cross-reactivity). How it is done: Total of 384 individual phage lysates from the panning were tested for binding specificity towards sIGF1R in a solid phase phage ELISA. Briefly, 100 μl/well of 5 μg/ml sIGF1R (R&D Systems, Minneapolis, Minn.) was bound to Black Maxisorp Plates (Nunc, Rochester, N.Y.), 25 μl of phage lysate added, and the reaction was detected using anti-M13-HRP antibody (EMD Biosciences, Gibbstown, N.J.) and POD substrate (Roche, Indianapolis, Ind.), and the signal detected using a TEKAN plate reader. […] Positive lysates were defined as clones with a sIGF1R specific signal that was three fold above the background of the negative control. A total of 13 clones with unique peptide sequences were obtained with confirmed binding to the sIGF1R (Table 1). From these 13 clones, 3 (clones 5, 13 and 16) cross-reacted with the insulin receptor.

This note sets out measurements from patent US8415306B2, “Insulin-like growth factor 1 receptor binding peptides” (Janssen Biotech, Inc., priority 2010, dated 2013).

Some results are limits rather than exact numbers.

For the substance “11 (HTCFYPTLMPPELCFD; IGF1R binding peptide from pIX library) [Clone 11]”, in the test with sIGF1R [1], the EC50 is 1200 nM. Moreover, the “Competed by IGF-1” value with sIGF1R [2] is “yes”. In addition, in test [3], the Transcytosis result is reported as “no”.
“10 (LSCYDPTLRTLYCHV; IGF1R binding peptide from pIX library) [Clone 10]”: the EC50 in the test with sIGF1R [1] stood at 4300 nM.
Consider “5 (TGCDFPELCRGCHP; IGF1R binding peptide from pIX library) [Clone 5]”, for which the “cross-reaction with the insulin receptor” value with insulin receptor was “cross-reacted”. This substance also displayed a concentration for a half-maximal effect (EC50) with sIGF1R [1] of 750 nM. Besides, the Transcytosis entry in test [3] was “yes”.
As for “17 (DDIDEFLHQLHNLVNNVH; IGF1R binding peptide from pIX library) [Clone 17]”, the “binding curve shape (binding profile)” value with sIGF1R [1] (PG-peptide fusion on sIGF1R) is “bellshaped”. For the same substance, the “Competed by IGF-1” value in the test with sIGF1R [2] is given as “yes”. For the same substance, the Transcytosis entry in test [3] is recorded as “no”.
For the substance “16 (AGCPSPMPPVDPGFYSAIVQLCRE; IGF1R binding peptide from pIX library) [Clone 16]”, in the test with insulin receptor, the “cross-reaction with the insulin receptor” value is reported as “cross-reacted”. The EC50 with sIGF1R [1] is 8200 nM. Besides, the “Competed by IGF-1” value with sIGF1R [2] is “yes”. For the same substance, the Transcytosis entry in test [3] is given as “yes”.
In the case of “15 (MTCAWHTLHTDPGLTPQLTLPCIY; IGF1R binding peptide from pIX library) [Clone 15]”, the EC50 with sIGF1R [1] amounted to 2600 nM.
In the test with sIGF1R [1], “6 (AECEWPWLTLELCQS; IGF1R binding peptide from pIX library) [Clone 6]” showed an EC50 of 1000 nM. The Transcytosis result in test [3] is listed as “yes”.
In the case of “8 (PVCPSFCYDQYVCPT; IGF1R binding peptide from pIX library) [Clone 8]”, in the test with sIGF1R [1], the concentration for a half-maximal effect (EC50) turned out to be 1600 nM. Besides, the Transcytosis result in test [3] is “yes”.
For “14 (VECDTPSITFSPGLEALFWNTCSP; IGF1R binding peptide from pIX library) [Clone 14]”, in the test with sIGF1R [1], it took 850 nM to reach a half-maximal effect (EC50). Moreover, the “Competed by IGF-1” value with sIGF1R [2] is recorded as “yes”. In test [3], the Transcytosis entry was “no”.
For “9 (FTCAVYSLSELDCRD; IGF1R binding peptide from pIX library) [Clone 9]”, a half-maximal response in the test with sIGF1R [1] (EC50) required 3500 nM. Besides, the Transcytosis entry in test [3] is given as “no”.
Take “7 (PFCYSGGPLPYPCTY; IGF1R binding peptide from pIX library) [Clone 7]”: the EC50 with sIGF1R [1] came out at 1800 nM.
Turning to “13 (WHCTPLTQIADPGSIIHILECTV; IGF1R binding peptide from pIX library) [Clone 13]”, the “cross-reaction with the insulin receptor” value with insulin receptor is given as “cross-reacted”. Besides, the EC50 with sIGF1R [1] is greater than 50000 nM. For the same substance, the “Competed by IGF-1” value with sIGF1R [2] is listed as “yes”. Moreover, the Transcytosis result in test [3] was “no”.
Substance “12 (SNCPPLDMRLTELCVM; IGF1R binding peptide from pIX library) [Clone 12]” displayed a concentration giving a half-maximal response (EC50) with sIGF1R [1] of 1800 nM. The Transcytosis result in test [3] is on record as “yes”.
